Experimental data as given in paper PMC1978536, “MVB-12, a Fourth Subunit of Metazoan ESCRT-I, Functions in Receptor Downregulation” (PLoS ONE, 2007).

T1: TSG-101:6xHIS (recombinant C. elegans TSG-101) (C. elegans, UniProt O76258 1-425)
T1 construct: open reading frame amplified from N2 cDNA; source: E. coli BL21 (DE3), co-expressed from a polycistronic vector, purified (Ni-NTA, Superose 6); not shown: 6xHis, C-terminal, kept
T1 sequence (looked up): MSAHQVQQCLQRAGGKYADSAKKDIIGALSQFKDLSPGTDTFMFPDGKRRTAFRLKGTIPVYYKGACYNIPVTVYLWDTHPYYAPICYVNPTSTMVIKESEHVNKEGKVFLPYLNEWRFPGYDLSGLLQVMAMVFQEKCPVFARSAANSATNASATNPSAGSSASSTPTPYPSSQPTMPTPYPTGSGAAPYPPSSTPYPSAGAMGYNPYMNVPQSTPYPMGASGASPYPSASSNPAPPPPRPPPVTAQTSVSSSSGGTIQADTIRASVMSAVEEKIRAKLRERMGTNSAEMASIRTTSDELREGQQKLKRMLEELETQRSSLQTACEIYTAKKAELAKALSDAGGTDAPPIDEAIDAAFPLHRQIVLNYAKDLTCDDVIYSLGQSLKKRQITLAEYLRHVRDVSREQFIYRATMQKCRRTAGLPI


Key:
[1] = target: TSG-101 (C. elegans, endogenous) (C. elegans (endogenous in embryos)); experiment: SEC + other: sucrose density gradient sedimentation; C. elegans embryo extracts desalted into 50 mM Na phosphate pH 7.0, 250 mM NaCl, 1 mM EDTA, 1 mM beta-mercaptoethanol; Superose 6 and 5-20% sucrose gradient; fractions blotted for TSG-101 and MVB-12
[2] = target: T1, TSG-101:6xHIS (recombinant C. elegans …); experiment: SEC + other: sucrose density gradient sedimentation; TSG-101:6xHIS, VPS-28 and VPS-37 co-expressed in E. coli, purified on nickel resin; Superose 6 in 50 mM Na phosphate pH 7.0, 250 mM NaCl, 1 mM EDTA, 1 mM beta-mercaptoethanol; 5-20% sucrose gradient; Stokes radius and S-value combined to a native molecular weight; settings: both partners purified
[3] = target: T1, TSG-101:6xHIS (recombinant C. elegans …); experiment: SEC + other: sucrose density gradient sedimentation; TSG-101:6xHIS, VPS-28, VPS-37 and MVB-12 co-expressed in E. coli, purified on nickel resin; Superose 6 in 50 mM Na phosphate pH 7.0, 250 mM NaCl, 1 mM EDTA, 1 mM beta-mercaptoethanol; 5-20% sucrose gradient; Stokes radius and S-value combined to a native molecular weight; settings: both partners purified

| stoichiometry N [2] | Molecule | other results |
| --- | --- | --- |
|  | MVB-12 (C. elegans, endogenous) (from UniProt Q17687 1-277) (natural protein) | stoichiometry N [1]: 1 |
| 1 | VPS-28 (recombinant C. elegans) (natural protein, UniProt Q9NA26 1-210, looked up, VPS-28, C. elegans; open reading frame amplified from N2 cDNA) MSSQNANLMREVRLFENHSEREQMENLSELFAVLNALEHLEKMFSRDHVSADEYKSECFKLIDQYKVTMRLVHGATSIEDFAKKYRLHCPAAIERIREGRPITVKDDQGNVLKHIASIVEQFITFLDALRLNTRAVDDLYPGLDDLYNAINTTSRVPIDAIVTTKVKKWHDRLSSMAASDEISDEDARQMIFDVESAYQAFNKALNELKH |  |
| 1 | VPS-37 (recombinant C. elegans) (natural protein, UniProt O44158 1-234, looked up, VPS-37 (CD4.4), C. elegans; open reading frame amplified from N2 cDNA) MFSQNPYESHVDVAVSAASANLRNMTNEQLISLLDDDALLESIIVNLPQVRSMPTDKESALAANKSLAEWNLAQKPRIDAAKTQTVDLYDQVKKLQGEVAVLKSQLDSVSSSKSLDTTSSLMQVAAQEADDDAEALFTQFENGEISVEIFLKQFKDKKTIAHLRKIKSDRLAALLREQTYSSYAQPTVPPPMPHAQPGYPTGNHMPGIGNIQFGSGYSGYPNISQPSAGRHPFF |  |
|  | MVB-12 (recombinant C. elegans) (natural protein, UniProt Q17687 1-277, looked up, MVB-12 (C06A6.3), C. elegans; open reading frame amplified from N2 cDNA; 277 amino acids as printed) MTELEFSADNAAPVIPITAICIVADKNKAPRGFLPIIKCQDDQTEADLWRDGFFTINRQVRYICTSTEIPDSNIKTPVQVITNLIIVRESDPIPHGYVAIDYTADSREKSLRKKYVCIRTEPRDRVVDAIGEIIILGKTKKVPRDYTSAGDIDSLLICYKVISIPQTYGIQTSNSTSNIESQAAGGLYPGLPNLSNSTPANLDVTGSSSNSAFTMKNAGAPRVKAIDGIDFKVNPMFVNSSGSNNSSQLPDLSQFNDLDRLDDKYNYSYATEHAVLS | stoichiometry N [3]: 1 |
